Assay results as given in patent US20250282885A1 (VST BIO, published 2025).
Where a chain is given by its changes, count along the chain named.

B1: TP-43327F (antibody, human IgG1, kappa, V domains shown)
VH: QVQLVESGGGVVQPGGSLRLSCAASGFTFNIYAMHWVRQAPGKGLEWVARIGSKSSYYATYYADSVKGRFTISRDNSKNTLYLQMNSLRTEDTAVYYCVSGKGDWGQGTLVTVSS
VL: DVVMTQSPLSLPVTLGQPASISCRSSQSLLAGDGKTYLNWFLQRPGQSPRRLIYLVSKLDSGVPDRFSGSGSGTDFTLKISRVEAEDVGVYYCWQGTHFPWTFGAGTRLEIKR
B2: TP-43329F (antibody, human IgG1, kappa, V domains shown)
VH: B1 VH
VL: B1 VL with L42Q
B3: 6-N03-A (antibody, mouse IgG1, kappa, V domains shown)
VH: EVQLVESGGGLVKPGGSLKLSCEASGITFSNYVMSWVRQTPEKRLEWVATISDGGSYTYYPDNVKGRFTISRDNAKNNLYLQMSHLKSEDTAMYYCVRDRYDYDGRVYAMDYWGQGTSVTVSS
VL: DVVMTQTPLSLPVSLGDQASISCRSSQSLVHSNGDTYLHWYLQKPGQSPKLLIYKVSNRFSGVPDRFSGSGSGTDFTLKITRVEAEDLGVYFCSQSTHVPWTFGGGTKLEIKR
B4: 19838-6-N03-A (antibody, IgG1, V domains shown)
VH: B3 VH
VL: B3 VL
B5: R3-P3-E09 (antibody, human IgG1, kappa, V domains shown)
VH: EVQLVETGGGVVQPGRSLTLSCGASEFTFSNYAMHWVRQAPGKGLEWVAVISYDGTKKYYGDSVKGRFTISRENIKNTLYLQMNSLRSEDTAVYYCARDVGKGVTATGTFDIWGQGTMVTVSS
VL: AIRMTQSPSSLSASVGDRVTITCRASQGIGSYLAWFQQKPGEAPKSLIIDATRLKSGVPSRFSGSGSGTEFALTISSLRPEDFATYYCQQYNVSPLTFGGGTKVEIKR
notes: human IgG1 kappa from the phage campaign

What was measured:
human Sdc2 [1] = target: T1, human Sdc2 (human, UniProt P34741 19-144, limits assumed); test: Kd (human Sdc2), summary table of the mAbs
T1 construct: Antigen of the Octet tandem binning, loaded on biosensors at 100 nM; also called huSdc2; hSdc2

[2] = target: human Sdc2 on Human Umbilical Vein Endothelial Cells (HUVEC) (human, UniProt P34741 19-201); test: cell-based or functional assay
human Sdc2 [3] = target: T1, human Sdc2; test: Octet tandem binning; saturating Ab f5 19844-R4M-P3-E06
Description: (§1) These studies were performed in a tandem binning assay format with human Sdc2, used as the antigen (concentration of 100 nM). Antigen loaded biosensors were dipped in a saturating solution of antibody (25 μg/ml) for 240 seconds followed by a competing antibody at 5 μg/ml for 180 seconds. […] Since saturation is not possible to achieve saturation with these clones, they are removed in as ligands, but retained in the analyte orientation in the analysis. A table summarizing the results of epitope binning of the 18 antibodies against huSdc2 is illustrated in FIG. 30. Data is normalized, where the raw binding signal from Competing Ab for a given Saturating Ab is divided by binding in the absence a […] (“buffer”). The threshold determining the matrix color is adjustable and dependent upon Ag-Ab binding. […] Table rows are based on similar looking binding profiles. Note that the coloration/cutoff is subjective, yellow color added to represent injections with ambiguous or very weak sandwiching signals. FIG. 31 illustrates a clustergram of the epitope binning studies, which was generated from the normalized binning data by importation into the statistical computing program R (The R Project for Statistical Computing: at r-project.org) and generation of a clustergram with the pvclust package.

human Sdc2 [4] = target: T1, human Sdc2; test: Octet tandem binning; saturating Ab m1 19838-20H19-AB
Description: as §1

human Sdc2 [5] = target: T1, human Sdc2; test: Octet tandem binning; saturating Ab f4 19844-R3-P3-C11
Description: as §1

human Sdc2 [6] = target: T1, human Sdc2; test: Octet tandem binning; saturating Ab m6 19838-20H19-AA (marked non-binding ligand)
Description: as §1

human Sdc2 [7] = target: T1, human Sdc2; test: Octet tandem binning; saturating Ab f10 19838-10-I12-A
Description: as §1

human Sdc2 [8] = target: T1, human Sdc2; test: Octet tandem binning; saturating Ab m7 19844-R3-P1-E07
Description: as §1

human Sdc2 [9] = target: T1, human Sdc2; test: Octet tandem binning; saturating Ab f6 19844-R3-P3-E09
Description: as §1

human Sdc2 [10] = target: T1, human Sdc2; test: Octet tandem binning; saturating Ab m3 19844-R3-P1-C02 (row boxed, self-self >0.09)
Description: as §1

human Sdc2 [11] = target: T1, human Sdc2; test: Octet tandem binning; saturating Ab m8 19844-R4M-P1-B01 (marked non-binding ligand)
Description: as §1

human Sdc2 [12] = target: T1, human Sdc2; test: Octet tandem binning; saturating Ab m5 19844-R4M-P3-A12 (row boxed, self-self >0.09)
Description: as §1

human Sdc2 [13] = target: T1, human Sdc2; test: Octet tandem binning; Buffer in place of a saturating Ab
Description: as §1

human Sdc2 [14] = target: T1, human Sdc2; test: Octet tandem binning; saturating Ab f11 19838-20-H19-A
Description: as §1

human Sdc2 [15] = target: T1, human Sdc2; test: Octet tandem binning; saturating Ab f7 19844-R3-P3-A12
Description: as §1

human Sdc2 [16] = target: T1, human Sdc2; test: Octet tandem binning; saturating Ab f12 19838-6-N03-A
Description: as §1

human Sdc2 [17] = target: T1, human Sdc2; test: Octet tandem binning; saturating Ab m2 19838-8G17-A
Description: as §1

human Sdc2 [18] = target: T1, human Sdc2; test: Octet tandem binning; saturating Ab f8 19844-R4M-P2-C02
Description: as §1

human Sdc2 [19] = target: T1, human Sdc2; test: Octet tandem binning; saturating Ab f9 19838-6-E17-A
Description: as §1

human Sdc2 [20] = target: T1, human Sdc2; test: Octet tandem binning; saturating Ab m4 19844-R4M-P1-A10
Description: as §1

human Sdc2 [21] = target: T1, human Sdc2; test: Octet tandem binning; saturating Ab f3 19838-6N03-A
Description: as §1

human Sdc2 [22] = target: T1, human Sdc2; test: Octet BLI, HIS1K sensor loaded with hSdc2, antibody as sample; Full R2 0.9248
human Sdc2 [23] = target: T1, human Sdc2; test: Octet BLI, heading box over the sensorgram
Description: In order to characterize the binding affinity and in vivo/in vitro functional ability of the twelve clones generated by the previous studies and disclosed in Table 1, a series of assays were performed on each clone. These assays measured the affinity of each antibody clone for human, pig, and mouse Sdc2 using an Octet® binding assay system. Additionally, the functional ability of each clone to inhibit VEGFA-driven permeability (see Santiago, et al. (2021) J Am Heart Assoc. 10(18):e020521) was assessed in two therapeutic settings: a “prevention” study in which three concentrations of antibody (5 μg/ml, 10 μg/ml, 15 μg/ml, 20 μg/ml, and/or 40 μg/ml depending on the study) were pre-incubated for an hour before administration of 100 ng/ml of VEGFA, and a “treatment” study in which 3 hours of pre-treatment with 100 ng/ml VEGFA were followed by treatment with antibody at 20 μg/ml or 40 μg/ml. Results are shown for 8-G17 in FIG. 8 and FIG. 9, 20-H19-AB in FIG. 10 and FIG. 11 (FIG. 12 for monkey ECs), R3-P3-C11 in FIG. 13 and FIG. 14, R4M-P3-E06 in FIG. 15 and FIG. 16, R3-P3-E09 in FIG. 17 and FIG. 18, R3-P1-C02 in FIG. 19 and FIG. 20, R3-P3-A12 in FIG. 21 and FIG. 22, R4M-P3-A12 in FIG. 23 and FIG. 24, and R4M-P1-A10 in FIG. 25 and FIG. 26.

Sequence of human Sdc2 on Human Umbilical Vein Endothelial Cells (HUVEC) (P34741 19-201 limits assumed): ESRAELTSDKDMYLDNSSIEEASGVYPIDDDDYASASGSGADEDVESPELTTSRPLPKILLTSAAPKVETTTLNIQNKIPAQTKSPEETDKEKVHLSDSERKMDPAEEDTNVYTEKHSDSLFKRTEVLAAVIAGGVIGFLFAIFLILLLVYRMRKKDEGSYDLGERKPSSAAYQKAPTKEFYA
T1 sequence (P34741 19-144 limits assumed): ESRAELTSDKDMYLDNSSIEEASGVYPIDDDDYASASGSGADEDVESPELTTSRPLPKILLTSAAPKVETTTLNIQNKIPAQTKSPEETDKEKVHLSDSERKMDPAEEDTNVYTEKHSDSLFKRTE

Binder | Kd (human Sdc2 [1]) [nM] | % Inhibition of VEGFA-induced permeability at 24hrs (20ug/ml) [2] [%] | raw competing-Ab binding signal (human Sdc2 [3]) | raw competing-Ab binding signal (human Sdc2 [4]) | raw competing-Ab binding signal (human Sdc2 [5]) | raw competing-Ab binding signal (human Sdc2 [6]) | raw competing-Ab binding signal (human Sdc2 [7]) | raw competing-Ab binding signal (human Sdc2 [8]) | raw competing-Ab binding signal (human Sdc2 [9]) | raw competing-Ab binding signal (human Sdc2 [10]) | raw competing-Ab binding signal (human Sdc2 [11]) | raw competing-Ab binding signal (human Sdc2 [12]) | raw competing-Ab binding signal (human Sdc2 [13]) | raw competing-Ab binding signal (human Sdc2 [14]) | raw competing-Ab binding signal (human Sdc2 [15]) | raw competing-Ab binding signal (human Sdc2 [16]) | raw competing-Ab binding signal (human Sdc2 [17]) | raw competing-Ab binding signal (human Sdc2 [18]) | raw competing-Ab binding signal (human Sdc2 [19]) | raw competing-Ab binding signal (human Sdc2 [20]) | further results
B1 | < 0.1 | 100 |  |  |  |  |  |  |  |  |  |  |  |  |  |  |  |  |  |  | 
B2 | 0.8 | 100 |  |  |  |  |  |  |  |  |  |  |  |  |  |  |  |  |  |  | 
B3 | 1.17 | 50 | 0.463 | 0.0812 | 0.301 | 0.487 | 0.0887 | 0.486 | 0.346 | 0.397 | 0.497 | 0.472 | 0.477 | 0.0908 | 0.179 | 0.0194 | -0.0492 | 0.418 | 0.422 | 0.374 | 
B4 |  |  | 0.463 | 0.0556 | 0.197 | 0.501 | 0.0734 | 0.48 | 0.31 | 0.332 | 0.388 | 0.435 | 0.413 | 0.122 | 0.162 |  | -0.0312 | 0.326 | 0.378 | 0.336 | raw competing-Ab binding signal (human Sdc2 [21]): 0.0058
B5 | 17.7 | 75 | 0.338 | 0.273 | -0.138 | 0.293 | 0.151 | 0.348 |  | 0.246 | 0.307 | 0.304 | 0.285 | 0.337 | -0.135 | 0.518 | 0.397 | 0.209 | 0.376 | 0.241 | Kd (human Sdc2 [22]): 17.7 nM; koff (human Sdc2 [22]): 0.00908 s⁻¹; kon (human Sdc2 [22]): 513000 M⁻¹ s⁻¹; raw competing-Ab binding signal (human Sdc2 [21]): 0.407; Kd (human Sdc2 [23]): ~17.7 nM
